# Paper PMC11800616 (Mobile DNA, 2025)
# Where two headings read alike, the source gives them in different places.
# Assays:
# [1] = target: T1, LINE-1 ORF2p (translation product of L1 ORF2), endogenous (human (endogenous in N2102Ep and …, UniProt O00370 1-1275)); test: affinity purification with mass spectrometry
# [2] = target: T1, LINE-1 ORF2p (translation product of L1 …); test: affinity purification with mass spectrometry; remark: listed apart in the source
# T1 sequence (O00370 whole entry): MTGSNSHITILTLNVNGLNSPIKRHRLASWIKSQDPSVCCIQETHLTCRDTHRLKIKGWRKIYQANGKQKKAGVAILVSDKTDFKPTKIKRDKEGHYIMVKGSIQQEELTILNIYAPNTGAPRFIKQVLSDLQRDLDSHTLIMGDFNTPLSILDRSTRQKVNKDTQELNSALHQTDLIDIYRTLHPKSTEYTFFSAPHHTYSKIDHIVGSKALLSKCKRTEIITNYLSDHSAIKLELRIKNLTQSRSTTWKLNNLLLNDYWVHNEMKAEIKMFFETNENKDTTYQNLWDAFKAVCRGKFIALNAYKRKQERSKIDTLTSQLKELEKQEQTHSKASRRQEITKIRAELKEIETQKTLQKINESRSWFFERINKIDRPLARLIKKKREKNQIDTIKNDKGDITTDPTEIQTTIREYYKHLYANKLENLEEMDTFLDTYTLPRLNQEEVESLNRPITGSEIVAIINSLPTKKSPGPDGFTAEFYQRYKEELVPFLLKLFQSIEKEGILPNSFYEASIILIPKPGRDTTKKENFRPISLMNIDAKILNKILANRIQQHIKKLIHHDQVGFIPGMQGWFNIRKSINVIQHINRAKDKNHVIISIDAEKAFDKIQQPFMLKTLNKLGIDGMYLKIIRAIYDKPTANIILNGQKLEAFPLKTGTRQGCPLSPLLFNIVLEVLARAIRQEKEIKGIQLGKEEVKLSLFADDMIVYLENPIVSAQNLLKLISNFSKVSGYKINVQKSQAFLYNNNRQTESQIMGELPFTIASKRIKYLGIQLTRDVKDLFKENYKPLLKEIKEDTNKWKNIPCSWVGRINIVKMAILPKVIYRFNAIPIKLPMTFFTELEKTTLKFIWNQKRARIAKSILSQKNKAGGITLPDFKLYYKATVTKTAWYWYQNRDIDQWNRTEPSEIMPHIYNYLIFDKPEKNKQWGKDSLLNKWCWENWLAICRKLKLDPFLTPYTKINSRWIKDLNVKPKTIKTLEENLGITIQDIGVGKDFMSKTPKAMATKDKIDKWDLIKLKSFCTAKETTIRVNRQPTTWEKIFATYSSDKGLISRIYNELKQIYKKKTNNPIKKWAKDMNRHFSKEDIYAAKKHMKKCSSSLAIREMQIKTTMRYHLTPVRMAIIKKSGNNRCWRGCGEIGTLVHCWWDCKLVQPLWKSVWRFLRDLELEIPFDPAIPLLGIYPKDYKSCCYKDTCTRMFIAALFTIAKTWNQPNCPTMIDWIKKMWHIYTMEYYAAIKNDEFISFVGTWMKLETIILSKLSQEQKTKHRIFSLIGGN
binder,measurement,setting,value
"LINE-1 ORF1p (translation product of L1 ORF1), endogenous (natural protein) MGKKQNRKTGNSKTQSASPPPKERSSSPATEQSWMENDFDELREEGFRRSNYSELREDIQTKGKEVENFEKNLEECITRITNTEKCLKELMELKTKARELREECRSLRSRCDQLEERVSAMEDEMNEMKREGKFREKRIKRNEQSLQEIWDYVKRPNLRLIGVPESDVENGTKLENTLQDIIQENFPNLARQANVQIQEIQRTPQRYSSRRATPRHIIVRFTKVEMKEKMLRAAREKGRVTLKGKPIRLTADLSAETLQARREWGPIFNILKEKNFQPRISYPAKLSFISEGEIKYFIDKQMLRDFVTTRPALKELLKEALNMERNNRYQPLQNHAKM",ORF1p:ORF2p molar ratio in the affinity enriched fraction,[1],~184 molar ratio (ORF1p per ORF2p)
same,ORF1p:ORF2p molar ratio in the affinity enriched fraction,[2],~279 molar ratio (ORF1p per ORF2p)
